These results are taken from patent US20100233173A1 (AstraZeneca / MedImmune, published 2010).

The assay concerns the target T1, EphA2 (human, UniProt P29317 25-534, limits assumed).
T1 construct: also called biotinylated EphA2; soluble EphA2 antigen
Briefly: BIAcore, ovalbumin immobilised, antigens injected one after the other. The protocol: FIG. 36. […] The upper curve represents the binding activity of three distinct epitope binding domains present on multispecific epitope binding protein “P1” represented in FIG. […]. Soluble EB, EA, and EphA2 antigens were added to immobilized P1 and the relative binding was measured. The three distinct inflections referenced by the arrows corresponding to the three antigens indicates binding to the immobilized P1. Ovalbumin (bottom curve) was used as a negative control.
Methods: Triple-specific binding ability of P1 (FIG. 3D) was assessed by BIAcore by injecting the three antigens EB, EA and EphA2 sequentially over a P1-coated chip. When the P1 epitope had been saturated with the first antigen (EB), the second antigen (EA) was injected, followed by the injection of the third antigen (EphA2). Ovalbumin was used as a negative binding control.
In general terms: In SPR one partner is held on a chip, and binding of the other changes the refractive index at the surface.

T1 sequence (P29317 25-534 limits assumed): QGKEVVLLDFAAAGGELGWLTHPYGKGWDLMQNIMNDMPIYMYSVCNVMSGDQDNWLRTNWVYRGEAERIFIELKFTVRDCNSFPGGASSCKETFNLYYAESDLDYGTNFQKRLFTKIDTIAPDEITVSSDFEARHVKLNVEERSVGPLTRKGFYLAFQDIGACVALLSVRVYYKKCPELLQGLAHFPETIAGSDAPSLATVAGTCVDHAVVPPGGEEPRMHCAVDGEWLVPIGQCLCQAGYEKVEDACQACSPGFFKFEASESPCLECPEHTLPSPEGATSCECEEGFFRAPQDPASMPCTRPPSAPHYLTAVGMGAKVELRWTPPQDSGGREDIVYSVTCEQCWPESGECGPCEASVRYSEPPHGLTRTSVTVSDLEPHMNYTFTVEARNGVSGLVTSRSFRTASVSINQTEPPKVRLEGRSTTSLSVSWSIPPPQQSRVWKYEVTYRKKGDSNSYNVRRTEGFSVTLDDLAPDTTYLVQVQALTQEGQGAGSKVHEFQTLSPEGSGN

B1: Ovalbumin (other, UniProt P01012 2-386, looked up)
chain: GSIGAASMEFCFDVFKELKVHHANENIFYCPIAIMSALAMVYLGAKDSTRTQINKVVRFDKLPGFGDSIEAQCGTSVNVHSSLRDILNQITKPNDVYSFSLASRLYAEERYPILPEYLQCVKELYRGGLEPINFQTAADQARELINSWVESQTNGIIRNVLQPSSVDSQTAMVLVNAIVFKGLWEKAFKDEDTQAMPFRVTEQESKPVQMMYQIGLFRVASMASEKMKILELPFASGTMSMLVLLPDEVSGLEQLESIINFEKLTEWTSSNVMEERKIKVYLPRMKMEEKYNLTSVLMAMGITDVFSSSANLSGISSAESLKISQAVHAAHAEINEAGREVVGSAEAGVDAASVSEEFRADHPFLFCIKHIATNAVLFFGRCVSP
notes: also called immobilized ovalbumin
With B1, the binding result is on record as “no binding”.
